From patent US20070066522A1 (MICHIGAN STATE UNIVERSITY, published 2007)

Target: T1, c-Cbl (endogenous, in PH3MT cell lysates) (human, UniProt P22681 1-906)
T1 construct: also called c-Cbl E3 ubiquitin ligase; CB1
Test: method not described; Ras-transformed cells

B1: Sprouty2 (endogenous, in PH3MT human fibroblast lysates) (other)
chain: MEARAQSGNGSQPLLQTPRDGGRQRGEPDPRDALTQQVHVLSLDQIRAIRNTNEYTEGPTVVPRPGLKPAPRPSTQHKHERLHGLPEHRQPPRLQHSQVHSSARAPLSRSISTVSSGSRSSTRTSTSSSSSEQRLLGSSFSSGPVADGIIRVQPKSELKPGELKPLSKEDLGLHAYRCEDCGKCKCKECTYPRPLPSDWICDKQCLCSAQNVIDYGTCVCCVKGLFYHCSNDDEDNCADNPCSCSQSHCCTRWSAMGVMSLFLPCLWCYLPAKGCLKLCQGCYDRVNRPGCRCKNSNTVCCKVPTVPPRNFEKPT
notes: Endogenous protein of the H-Ras-transformed human fibroblast strain PH3MT; also called Spry2; human Sprouty-2
binding result: binds
